{"source": "patent US20150320880A1", "about": "“ANTIBODY DRUG CONJUGATES” (NOVARTIS AG, priority 2013, published 2015)", "molecules": {"B1": {"name": "20376 (antibody, human IgG1, lambda, V domains shown)", "VH": "QVQLVQSGAEVKKPGSSVKVSCKASGGTFSSYAISWVRQAPGQGLEWMGGIIPMSGRTTYAQKFQGRVTITADESTSTAYMELSSLRSEDTAVYYCARDYGPEAPDYGQSTSYFWYYAFDPWGQGTLVTVSS", "VL": "DIELTQPPSVSVSPGQTASITCSGDNIPSYFVHWYQQKPGQAPVLVIYDDNDRPSGIPERFSGSNSGNTATLTISGTQAEDEADYYCSSWDQDTVVFGGGTKLTVLG", "notes": "human IgG1 lambda"}, "B2": {"name": "NEG086 (antibody, human IgG1, kappa, V domains shown)", "VH": "EVQLVESGGGLVQPGGSLRLSCAASGFTFSDYYMAWVRQAPGKGLEWVANINQIAGSTYYVDSVQGRFTISRDNAKNSLYLQMNSLRAEDTAVYYCARGDYYGTTYWYFDVWGQGTTVTVSS", "VL": "DIQMTQSPSSLSASVGDRVTITCRASQSISSYLNWYQQKPGKAPKLLIYYTSRLQSGVPSRFSGSGSGTDFTLTISSLQPEDFATYYCQQGRRLWSFGGGTKVEIKR", "notes": "Humanized, optimized variant of 9P3; human IgG1 kappa"}, "B3": {"name": "NEG024 (antibody, human IgG1, kappa, V domains shown)", "VH": "B2 VH with V61L, Q65R", "VL": "EIVMTQSPATLSLSPGERATLSCRASQDISNYLNWYQQKPGQAPRLLIYYTSRLQSGIPARFSGSGSGTDYTLTISSLEPEDFAVYYCQQGKKLWSFGGGTKVEIKR", "notes": "as for B2"}, "B4": {"name": "NEG085 (antibody, human IgG1, kappa, V domains shown)", "VH": "B2 VH with T28A, D31G, Q53Y, I54P, A55G, G56S, V61L, Q65K", "VL": "B2 VL", "notes": "Humanized, optimized variant of 9P3; human IgG1 kappa; also called unconjugated NEG085"}, "B5": {"name": "NEG086-MCC-DM1 (antibody, human IgG1, kappa, V domains shown)", "VH": "B2 VH", "VL": "B2 VL", "modifications": "DM1 linked through the MCC (SMCC) linker to primary amines of the antibody, sites not stated; DM1 linked through the MCC (SMCC) linker to primary amines of the antibody, sites not stated; average MAR 3.5 (Table 7)", "notes": "Antibody drug conjugate of NEG086"}, "B6": {"name": "NEG085-MCC-DM1 (antibody, human IgG1, kappa, V domains shown)", "VH": "B2 VH with T28A, D31G, Q53Y, I54P, A55G, G56S, V61L, Q65K", "VL": "B2 VL", "modifications": "DM1 linked through the MCC (SMCC) linker to primary amines of the antibody, sites not stated; DM1 linked through the MCC (SMCC) linker to primary amines of the antibody, sites not stated; average MAR 3.5 (Table 7)", "notes": "Antibody drug conjugate of NEG085"}, "B7": {"name": "NEG087: anti-cKIT antibody of Table 1; VH SEQ ID NO 118, VL SEQ ID NO 127 (antibody, V domains shown)", "VH": "B2 VH with N50S, I54N, A55T, V61L, Q65R", "VL": "DIQMTQSPSSLSASVGDRVTITCRASQSISSYLNWYQQKPGKAPKLLIYYTSRLQSGVPSRFSGSGSGTDFTLTISSLQPEDFATYYCQQGRRLWSFGGGTKVEIK"}, "B8": {"name": "NEG027: anti-cKIT antibody of Table 1; VH SEQ ID NO 64, VL SEQ ID NO 73 (antibody, V domains shown)", "VH": "B2 VH with N50S, I54N, A55T, V61L, Q65R", "VL": "EIVMTQSPATLSLSPGERATLSCRASQDISNYLNWYQQKPGQAPRLLIYYTSRLQSGIPARFSGSGSGTDYTLTISSLEPEDFAVYYCQQGKKLWSFGGGTKVEIK"}, "B9": {"name": "NEG086: anti-cKIT antibody of Table 1; VH SEQ ID NO 100, VL SEQ ID NO 109 (antibody, V domains shown)", "VH": "B2 VH", "VL": "B7 VL"}, "B10": {"name": "NEG026: anti-cKIT antibody of Table 1; VH SEQ ID NO 46, VL SEQ ID NO 55 (antibody, V domains shown)", "VH": "B2 VH with I54N, A55T", "VL": "B8 VL"}}, "note": "Substitutions are numbered along the chain they refer to."}
{"target": "T1, Mouse cKIT ECD, C-terminal 6x His (Sino Biological Inc, catalog number 50530-M08H) (mouse, UniProt P05532 25-527)", "T1 construct": "extracellular domain; Bought protein", "T1 sequence (looked up)": "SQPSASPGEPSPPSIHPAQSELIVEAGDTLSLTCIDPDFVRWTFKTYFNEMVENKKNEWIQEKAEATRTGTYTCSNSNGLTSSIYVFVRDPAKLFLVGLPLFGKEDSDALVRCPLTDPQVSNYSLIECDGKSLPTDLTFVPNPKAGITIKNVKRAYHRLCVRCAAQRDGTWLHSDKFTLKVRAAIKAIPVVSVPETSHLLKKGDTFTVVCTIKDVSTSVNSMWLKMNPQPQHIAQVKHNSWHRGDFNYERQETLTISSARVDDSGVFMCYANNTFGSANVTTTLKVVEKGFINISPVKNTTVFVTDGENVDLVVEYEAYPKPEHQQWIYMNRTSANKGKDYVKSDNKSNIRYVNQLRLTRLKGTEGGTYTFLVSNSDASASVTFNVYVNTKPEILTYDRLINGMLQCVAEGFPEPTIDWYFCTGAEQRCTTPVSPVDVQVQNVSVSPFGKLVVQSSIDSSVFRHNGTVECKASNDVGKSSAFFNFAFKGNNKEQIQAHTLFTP", "assay": "SPR (Biacore 2000), antibody captured on anti-human Fc, cKIT ECD as analyte, 25 C, 1:1 fit", "conditions": "not given", "units": {"Kd": "nM"}}
{"molecule": "B1", "Kd": 2.5}
{"target": "T2, Cynomolgus monkey cKIT D1-5 (residues 25-520, C-terminal His tag) (cynomolgus monkey, UniProt P10721 25-520 (human entry))", "T2 construct": "the signal peptide was not part of the protein in the assay; also called cyno cKIT; cynomolgus monkey ECD", "T2 chain": "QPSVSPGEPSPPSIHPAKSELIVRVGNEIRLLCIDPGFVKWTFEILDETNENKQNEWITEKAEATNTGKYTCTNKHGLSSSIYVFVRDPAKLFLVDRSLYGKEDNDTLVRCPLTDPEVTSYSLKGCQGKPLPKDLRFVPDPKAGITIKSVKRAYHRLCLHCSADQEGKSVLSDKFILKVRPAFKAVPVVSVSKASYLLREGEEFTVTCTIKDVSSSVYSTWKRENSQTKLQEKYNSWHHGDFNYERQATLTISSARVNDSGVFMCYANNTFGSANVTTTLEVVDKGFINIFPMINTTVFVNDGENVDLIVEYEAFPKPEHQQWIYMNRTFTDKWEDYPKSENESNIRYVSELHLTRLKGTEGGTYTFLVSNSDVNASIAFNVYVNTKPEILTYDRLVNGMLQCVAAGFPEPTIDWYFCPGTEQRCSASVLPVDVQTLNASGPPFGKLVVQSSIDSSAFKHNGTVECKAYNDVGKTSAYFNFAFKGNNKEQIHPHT", "assay": "SPR (Biacore 2000), antibody captured on anti-human Fc, cKIT ECD as analyte, 25 C, 1:1 fit", "conditions": "not given", "units": {"Kd": "nM"}}
{"molecule": "B2", "Kd": 1.34}
{"molecule": "B3", "Kd": 1.15}
{"molecule": "B4", "Kd": 6.14}
{"molecule": "B1", "Kd": 4.8}
{"target": "T3, Human cKIT D1-5 (human cKIT tr. variant 2, residues 26-520, C-terminal His tag) (human, UniProt P10721 26-524)", "T3 construct": "also called human cKIT ECD; Human c-Kit ECD", "T3 sequence (P10721 other isoform, or with tags, fused parts or gaps mutant limits assumed)": "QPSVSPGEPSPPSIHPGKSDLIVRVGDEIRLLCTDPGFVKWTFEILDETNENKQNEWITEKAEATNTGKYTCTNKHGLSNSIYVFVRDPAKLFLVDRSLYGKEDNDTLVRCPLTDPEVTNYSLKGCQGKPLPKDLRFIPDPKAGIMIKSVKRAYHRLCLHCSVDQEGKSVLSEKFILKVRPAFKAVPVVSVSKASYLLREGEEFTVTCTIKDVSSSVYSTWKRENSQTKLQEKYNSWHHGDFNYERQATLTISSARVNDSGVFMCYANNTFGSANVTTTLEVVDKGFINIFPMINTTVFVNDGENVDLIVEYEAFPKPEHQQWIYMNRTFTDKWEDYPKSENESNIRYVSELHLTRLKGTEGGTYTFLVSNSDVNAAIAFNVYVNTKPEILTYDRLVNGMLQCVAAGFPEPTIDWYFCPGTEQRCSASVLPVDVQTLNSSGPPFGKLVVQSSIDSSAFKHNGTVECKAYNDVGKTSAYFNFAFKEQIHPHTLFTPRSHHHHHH", "assay": "SPR (Biacore 2000), antibody captured on anti-human Fc, cKIT ECD as analyte, 25 C, 1:1 fit", "conditions": "not given", "units": {"Kd": "nM"}}
{"molecule": "B2", "Kd": 1.44}
{"molecule": "B3", "Kd": 1.31}
{"molecule": "B4", "Kd": 8.4}
{"molecule": "B1", "Kd": 9.1}
{"target": "T1, Mouse cKIT ECD, C-terminal 6x His (Sino …)", "assay": "SPR (Biacore 2000), antibody captured on anti-human Fc", "conditions": "not given"}
{"molecule": "B2", "binding result": "no binding (tested: 3.125-50 nM of cKIT ECD injected)"}
{"molecule": "B3", "binding result": "no binding (tested: 3.125-50 nM of cKIT ECD injected)"}
{"molecule": "B4", "binding result": "no binding (tested: 3.125-50 nM of cKIT ECD injected)"}
{"target": "T4, Rat cKIT D1-5 (residues 25-526, C-terminal mFc) (rat)", "T4 construct": "The entry includes the linker and mouse Fc tag; also called rat cKIT-mFc", "T4 chain": "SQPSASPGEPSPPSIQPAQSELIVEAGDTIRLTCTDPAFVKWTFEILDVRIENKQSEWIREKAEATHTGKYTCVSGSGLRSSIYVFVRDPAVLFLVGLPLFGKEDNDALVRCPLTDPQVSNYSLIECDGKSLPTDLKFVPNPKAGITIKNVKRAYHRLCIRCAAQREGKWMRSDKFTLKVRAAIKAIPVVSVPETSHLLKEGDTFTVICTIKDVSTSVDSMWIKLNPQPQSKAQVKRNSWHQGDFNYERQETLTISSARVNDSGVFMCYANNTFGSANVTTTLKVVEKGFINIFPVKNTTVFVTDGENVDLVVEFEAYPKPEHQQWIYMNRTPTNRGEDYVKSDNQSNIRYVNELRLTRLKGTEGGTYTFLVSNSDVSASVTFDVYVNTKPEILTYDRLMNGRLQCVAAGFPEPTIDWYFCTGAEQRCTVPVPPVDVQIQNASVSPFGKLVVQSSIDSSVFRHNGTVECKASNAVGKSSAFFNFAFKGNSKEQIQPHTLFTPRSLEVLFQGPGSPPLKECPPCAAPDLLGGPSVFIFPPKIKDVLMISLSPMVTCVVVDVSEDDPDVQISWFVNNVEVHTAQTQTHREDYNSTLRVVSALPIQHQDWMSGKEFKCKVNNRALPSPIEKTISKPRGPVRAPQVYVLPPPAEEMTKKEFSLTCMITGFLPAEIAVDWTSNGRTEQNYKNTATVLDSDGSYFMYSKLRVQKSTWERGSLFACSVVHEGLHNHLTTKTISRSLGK", "assay": "SPR (Biacore 2000), antibody captured on anti-human Fc", "conditions": "not given"}
{"molecule": "B2", "binding result": "no binding (tested: 3.125-50 nM of cKIT ECD injected)"}
{"molecule": "B3", "binding result": "no binding (tested: 3.125-50 nM of cKIT ECD injected)"}
{"molecule": "B4", "binding result": "no binding (tested: 3.125-50 nM of cKIT ECD injected)"}
{"molecule": "B1", "binding result": "no binding (tested: 3.125-50 nM of cKIT ECD injected)"}
{"target": "T3, Human cKIT D1-5 (human cKIT tr. variant …)", "assay": "SPR (Biacore T100), CM5 chip, method as in Example 7; MCC-DM1 conjugate", "conditions": "not given", "units": {"Kd": "nM"}}
{"molecule": "B5", "Kd": 1.8}
{"molecule": "B6", "Kd": 5.2}
{"target": "T3, Human cKIT D1-5 (human cKIT tr. variant …)", "assay": "SPR (Biacore T100), CM5 chip, method as in Example 7; unconjugated antibody", "conditions": "not given", "units": {"Kd": "nM"}}
{"molecule": "B2", "Kd": 1.4}
{"molecule": "B3", "Kd": 1.3}
{"molecule": "B4", "Kd": 4.2}
{"molecule": "B1", "Kd": 9.1}
{"target": "T5, human cKIT ECD (Homo sapiens, UniProt P10721)", "T5 construct": "Human cKIT tr. variant 2, residues 26-520-TAG; made in house; host or cells: HEK293 derived cell lines (293FS), transient transfection", "T5 sequence (P10721 with tags, fused parts or gaps isoform P10721-2)": "as the sequence (P10721 other isoform, or with tags, fused parts or gaps mutant limits assumed) above", "assay": "SPR (Biacore 2000) affinity measurement", "format": "binding", "conditions": "25° C.", "procedure": "(§1) Affinity of the antibodies to cKIT species orthologues and also to cKIT was determined using SPR technology using a Biacore® 2000 instrument (GE Healthcare, Pittsburgh, Pa.) and with CM5 sensor chips.\n(§2) Briefly, HBS-P (0.01 M HEPES, pH 7.4, 0.15 M NaCl, 0.005% Surfactant P20) supplemented with 2% Odyssey® blocking buffer (Li-Cor Biosciences, Lincoln, Nebr.) was used as the running buffer for all the experiments. The immobilization level and analyte interactions were measured by response unit (RU). Pilot experiments were performed to test and confirm the feasibility of the immobilization of the anti-human Fc antibody (Catalog number BR100839, GE Healthcare, Pittsburgh, Pa.) and the capture of the test antibodies.\n(§3) For kinetic measurements, the experiments were performed in which the antibodies were captured to the sensor chip surface via the immobilized anti-human Fc antibody and the ability of the cKIT proteins to bind in free solution was determined Briefly, 25 μg/ml of anti-human Fc antibody at pH 5 was immobilized on a CM5 sensor chip through amine coupling at flow rate of 5 μl/minute on all two flow cells to reach 10,500 RUs. 0.1-1 μg/ml of test antibodies were then injected at 10 μl/min for 1 minute. Captured levels of the antibodies were generally kept below 200 RUs. Subsequently, 3.125-50 nM of cKIT receptor extracellular domains (ECD) were diluted in a 2-fold series and injected at a flow rate of 40 μl/min for 3 min over both reference and test flow cells. Table of tested ECDs is listed below. Dissociation of the binding was followed for 10 min. After each injection cycle, the chip surface was regenerated with 3 M MgCl2 at 10 μl/min for 30 s."}
{"molecule": "B7", "Affinity human cKIT (nM)": "nanomolar level"}
{"molecule": "B8", "Affinity human cKIT (nM)": "nanomolar level"}
{"molecule": "B9", "Affinity human cKIT (nM)": "nanomolar level"}
{"target": "mouse cKIT ECD", "assay": "SPR (Biacore 2000) affinity measurement", "format": "binding", "conditions": "25° C.", "procedure": "as §1, §2, §3"}
{"molecule": "B7", "Affinity mouse cKIT (nM)": "Not reactive"}
{"molecule": "B10", "Affinity mouse cKIT (nM)": "Not reactive"}
{"molecule": "B8", "Affinity mouse cKIT (nM)": "Not reactive"}
{"molecule": "B9", "Affinity mouse cKIT (nM)": "Not reactive"}
